Laboratory results as given in US20250154283A1 (published 2025).

T1: biotinylated human VWF cysteine knot (CK) domain construct (human, biotin on the in vitro biotinylation tag (residue not stated); one N-glycan)
T1 construct: Disulfide-linked homodimer; also called biotinylated human VWF CK domain; human VWF CK domain construct
T1 chain: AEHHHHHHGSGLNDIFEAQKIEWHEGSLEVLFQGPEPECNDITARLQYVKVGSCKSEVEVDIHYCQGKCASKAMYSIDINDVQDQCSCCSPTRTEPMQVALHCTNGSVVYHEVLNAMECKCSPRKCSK


Target: T1, biotinylated human VWF cysteine knot …
Assay: SPR, scFv captured on anti-SV5, pH 7.4

| Binder | binding result |
| --- | --- |
| Lib4_P2_A3_scFv (scFv, not shown: small tags and cut ends) scFv: QVQLQESGPGLVKPSQTLSLTCTVSGVSLSTSDYSWSWIRQPPGKGLEWIGYISPPGRSDYNPSLKSRVTMSVDTSKNQFSLKVNSVTAADTAVYYCARHSSSGWYSTYDFDSWGQGTMVTVSSSGGSTITSYNVYYTKLSSSGTEIVMTQSPATLSLSPGERATLSCRASQNIHSNLAWYQQKPGQAPRLLIYGATTRATGIPARFSGSGSGTDFTLTISSLEPEDFAVYYCQQSYTTPLTFGGGTKVEIK | binds |
| 487_Lib1_scFv (scFv, not shown: small tags and cut ends) scFv: QVQLVQSGAEVKKPGASVKVSCKVSGYTFTSHIIHWVRQAPGKGLEWMGGMNPYSNKAIYAQKFQGRVTMTEDTSTDTAYMELSSLKSEDTAVYYCARDASDYGDYGYYYYYMDVWGKGTTVTVSSSGGSTITSYNVYYTKLSSSGTDIQMTQSPSSVSASVGDRVTITCRASQSIGDFLAWYQQKPGKAPKLLIYDASHLQTGVPSRFSGSGSGTDFTLTISSLQPEDFANYYCQQTSTIPPTFGGGTKVEIK | binds |
| 256_Lib8_scFv (scFv, not shown: small tags and cut ends) scFv: EVQLVESGGGLVQPGRSLRLSCAASGFTVSSNAMHWVRQAPGKGLEWVSAIGTFADTDYADSVEGRFTISRDNAKNSLYLQMNSLRAEDTAVYYCAREGAAAGTNFDYWGQGTLVTVSSSGGSTITSYNVYYTKLSSSGTDIQMTQSPSSLSASVGDRVTITCRASQGIRSYLAWYQQKPGKAPKLLIYGASTLEGGVPSRFSGSGSGTDFTLTISSLQPEDVATYYCQQSYSTPPKFGGGTKVEIK | binds |
| 4035_Lib1_scFv (scFv, not shown: small tags and cut ends) scFv: QVQLVQSGAEVKKPGASVKVSCKVSGYAFPSYGIHWVRQAPGKGLEWMGGISAFTGDTIYAQKFQGRVTMTEDTSTDTAYMELSSLKSEDTAVYYCASGPTNVLTGLMESAEYFQHWGQGTLVTVSSSGGSTITSYNVYYTKLSSSGTDIQMTQSPSSVSASVGDRVTITCRASQGISRDLAWYQQKPGKAPKLLIYGASGRATGVPSRFSGSGSGTDFTLTISSLQPEDFANYYCQQSYITPTTFGGGTKVEIK | binds |
| 96_Lib4_scFv (scFv, not shown: small tags and cut ends) scFv: QVQLQESGPGLVKPSQTLSLTCTVSGESFSTSYWSWIRQPPGKGLEWIGYITHSGYTDYNPSLKSRVTMSVDTSKNQFSLKVNSVTAADTAVYYCARGGRFPFWYFDLWGRGSLVTVSSSGGSTITSYNVYYTKLSSSGTEIVMTQSPATLSLSPGERATLSCRASRSIGSNLAWYQQKPGQAPRLLIYGATTRATGIPARFSGSGSGTDFTLTISSLEPEDFAVYYCQQYKNDATFGGGTKVEIK | binds |
| Lib1_P1_A2_scFv (scFv, not shown: small tags and cut ends) scFv: QVQLVQSGAEVKKPGASVKVSCKVSEGTLSRHYINWVRQAPGKGLEWMGGINAKSGATIYAQKFQGRVTMTEDTSTDTAYMELSSLKSEDTAVYYCAKDTGDDILTDYSDAFDIWGQGTMVTVSSSGGSTITSYNVYYTKLSSSGTDIQMTQSPSSVSASVGDRVTITCRASQNIGTSLAWYQQKPGKAPKLLIYGASNLESGVPSRFSGSGSGTDFTLTISSLQPEDFANYYCLQYNDWPPLYSFGGGTKVEIK | binds |
| 2301_Lib4_scFv (scFv, not shown: small tags and cut ends) scFv: QVQLQESGPGLVKPSQTLSLTCTVSGASISTSDHSWSWIRQPPGKGLEWIGYIRDTGSTDYNPSLKSRVTMSVDTSKNQFSLKVNSVTAADTAVYYCAISSTERWKQSFGVDTEYFQHWGQGTLVTVSSSGGSTITSYNVYYTKLSSSGTEIVMTQSPATLSLSPGERATLSCRASRYVSTNLAWYQQKPGQAPRLLIYDAVTRAPGIPARFSGSGSGTDFTLTISSLEPEDFAVYYCQQYHSLPLIFGGGTKVEIK | binds |
| Lib1_P1_G3_scFv (scFv, not shown: small tags and cut ends) scFv: QVQLVQSGAEVKKPGASVKVSCKVSGYTSRQYIHWVRQAPGKGLEWMGWVTPIFGTTNYAQKFQGRVTMTEDTSTDTAYMELSSLKSEDTAVYYCAREWTGTTAFDIWGQGTLVTVSSSGGSTITSYNVYYTKLSSSGTDIQMTQSPSSVSASVGDRVTITCRASQDIGHYLAWYQQKPGKAPKLLIYAASNRASGVPSRFSGSGSGTDFTLTISSLQPEDFANYYCQQGYSAPYGFGGGTKVEIK | binds |
| 16_Lib8_scFv (scFv, not shown: small tags and cut ends) scFv: EVQLVESGGGLVQPGRSLRLSCAASGFRFDEYDMHWVRQAPGKGLEWVSAISSESASIDYADSVEGRFTISRDNAKNSLYLQMNSLRAEDTAVYYCARDGAYGDYFDYWGQGTMVTVSSSGGSTITSYNVYYTKLSSSGTDIQMTQSPSSLSASVGDRVTITCRASQDIKSWLAWYQQKPGKAPKLLIYGASTLQSGVPSRFSGSGSGTDFTLTISSLQPEDVATYYCQQSYSAPYTFGGGTKVEIK | binds |
| 11485_Lib1_scFv (scFv, not shown: small tags and cut ends) scFv: QVQLVQSGAEVKKPGASVKVSCKVSGAPSAAIIHWVRQAPGKGLEWMGGFTQIFGTAIYAQKFQGRVTMTEDTSTDTAYMELSSLKSEDTAVYYCAREGIGGHDAFDIWGQGTMVTVSSSGGSTITSYNVYYTKLSSSGTDIQMTQSPSSVSASVGDRVTITCRASQDISKNLAWYQQKPGKAPKLLIYKASKLESGVPSRFSGSGSGTDFTLTISSLQPEDFANYYCLHDYTYPPTFGGGTKVEIK | binds |
| 4956_Lib1_scFv (scFv, not shown: small tags and cut ends) scFv: QVQLVQSGAEVKKPGASVKVSCKVSGYTLTSNYIHWVRQAPGKGLEWMGGFNPSSGSTIYAQKFQGRVTMTEDTSTDTAYMELSSLKSEDTAVYYCARTLYDFWSGYLDAFDIWGQGTMVTVSSSGGSTITSYNVYYTKLSSSGTDIQMTQSPSSVSASVGDRVTITCRASQNIRSSLAWYQQKPGKAPKLLIYAASNLEPGVPSRFSGSGSGTDFTLTISSLQPEDFANYYCQQYEDTPLTFGGGTKVEIK | binds |
| 399_Lib1_scFv (scFv, not shown: small tags and cut ends) scFv: QVQLVQSGAEVKKPGASVKVSCKVSGITFTSDYIHWVRQAPGKGLEWMGGMNPYSNKAIYAQKFQGRVTMTEDTSTDTAYMELSSLKSEDTAVYYCATGGLRIAARTSYFDYWGQGTLVTVSSSGGSTITSYNVYYTKLSSSGTDIQMTQSPSSVSASVGDRVTITCRASMDIAGSLAWYQQKPGKAPKLLIYDTSFRATGVPSRFSGSGSGTDFTLTISSLQPEDFANYYCQQYDNPPRLTFGGGTKVEIK | binds |
| Lib4_P2_A10_scFv (scFv, not shown: small tags and cut ends) scFv: QVQLQESGPGLVKPSQTLSLTCTVSGASLGHQYWSWIRQPPGKGLEWIGYIDTSGSTDYNPSLKSRVTMSVDTSKNQFSLKVNSVTAADTAVYYCARVANYYYYMDVWGKGTTVTVSSSGGSTITSYNVYYTKLSSSGTEIVMTQSPATLSLSPGERATLSCRASQSVSNRLAWYQQKPGQAPRLLIYDASNRATGIPARFSGSGSGTDFTLTISSLEPEDFAVYYCQQYFITPSTFGGGTKVEIK | binds |
| Lib6_P3_A8_scFv (scFv, not shown: small tags and cut ends) scFv: EVQLVQSGAEVKKPGASVKVSCKASGYRFTNYDISWVRQAPGQGLEWMGGINPSSGITIYAQKLQGRGTMTTDPSTSTAYMELRSLRSDDTAVYYCARGAAYGDYLDYWGQGTLVTVSSSGGSTITSYNVYYTKLSSSGTESALTQPASVSGSPGQSITISCTGTNLGEKYVSWYQQHPGKAPKLMIYSTSQRPSGVSNRFSGSKSGNTASLTITGLQAEDEADYYCSSYTASSTPGLVFGGGTKLTVL | binds |
